A value given as a limit tells only on which side of the number the result lay.

Series [1] can be described thus: Determination of the isoelectric point by isoelectric focusing. It is filed as physicochemical. The following applies: Ampholine PAGplate pH 3.5-9.5, located by thrombin inhibition assay. The method, then:
The determination was carried out with an LKB Multiphor 2117 (horizontal system) and an LKB 2103 power supply. Precast gels were employed (Pharmacia Ampholine PAGplate pH 3.5-9.5). The standard proteins employed were amyloglucosidase, pH 3.5; soybean trypsin inhibitor, pH 4.55; β-lactoglobulin A, pH 5.2; bovine carbonic anhydrase, pH 5.85; human carbonic anhydrase, pH 6.55; horse myoglobin, pH 6.85 and 7.35; lentil lectin, pH 8.15, 8.45, 8.65 and trypsinogen, pH 9.3.
Focusing conditions: 1500 volts, 30 watts. Buffers:
cathode 1M sodium hydroxide solution
The plates were prefocused for 30 minutes to produce a pH gradient. The samples were loaded onto filter disks which lay on the gel. Focusing was continued for 30 minutes, the filter disks were removed and, after a further 30 minutes, focusing was stopped. The gels were immediately cut into 2 mm slices and transferred into distilled water. The protein eluted out of the gel slices overnight. The location of the thrombin inhibitor was determined by a thrombin inhibition assay. The pH can also be determined directly using a pH electrode.

The subject of series [2] is Thrombin. The series can be described thus: Binding to affinity column with immobilized thrombin. The following applies: immobilized thrombin on Sepharose. The method, then:
The combined active fractions were loaded onto an affinity column with immobilized thrombin (diameter 1.5 cm, height 6.5 cm, volume 11.5 ml, 60 ml/h). The column was prepared as in Example 3.
The column was equilibrated with 20 mM sodium phosphate pH 7.5. After the protein solution had been loaded onto the column it was washed with 10 column volumes of equilibration buffer until the absorption at 280 nm decreased to zero.
It was then washed with 0.5M NaCl, 20 mM sodium phosphate buffer pH 7.5. This removed non-specifically adsorbed material.
Protein specifically bound to thrombin was eluted with 0.1M glycine, 0.5M NaCl pH 2.8. The column was then immediately readjusted to pH 7.5 with phosphate buffer.
2 g of CNBr-activated Sepharose (Pharmacia) were washed with 200 ml of 1 mM HCl on a suction funnel. The gel was taken up in 100 mM NaHCO3, 500 mM NaCl pH 8.3 and immediately mixed with 10,000 units of thrombin (Sigma) in 100 mM NaHCO3, 500 mM NaCl, pH 8.3.
The solution was gently shaken at 4° C. for 24 hours.
The gel material was allowed to settle and then washed with 100 mM NaHCO3, 500 mM NaCl, pH 8.3. The Sepharose was then incubated with 100 mM NaHCO3, 500 mM NaCl, 1M ethanolamine pH 8.3 for 2 hours.
To remove unbound thrombin, before use the gel material is washed once more in the column with 20 column volumes of PBS pH 7.4.

Series [3] relates to Thrombin. Briefly: Determination of the inhibition of thrombin by the inhibitor (Chromozym TH optical assay). It is filed as biochemical. The following applies: in vitro enzyme assay. As for the experimental part: The purification of the protein can be monitored by a thrombin activity assay. It is expedient to use an optical assay in which a chromogenic substrate, for example Chromozym T, is converted by thrombin. The fractions containing the novel protein can be identified by their thrombin-inhibiting action on addition to this optical assay.
Thrombin (Boehringer Mannheim) was dissolved to a final concentration of 25 mU/ml in phosphate-buffered saline (PBS) ([…], […], 0.144 g/l sodium phosphate, 0.2 g/l potassium phosphate, pH 7.5).
Chromozym TH (Boehringer Mannheim) was dissolved in 20 ml of H2 O per vial.
50 μl of thrombin solution and 100 μl of Chromozym plus 25 μl of sample or buffer were placed in the wells of a microtiter plate. The absorption at 405 nm was measured at 37° C. immediately thereafter at time 0 and after 30 minutes.
When the sample was deeply colored another control without thrombin was treated as described above.
The activity of thrombin liberates a dye which absorbs at 405 nm from the chromogenic substrate. Inhibition of the thrombin by a thrombin inhibitor is evident from a smaller increase in the absorption at 405 nm and was quantified using a calibration plot.

Regarding hirudin [reference compound], the isoelectric point in series [1] is on record as at most 3.5 pH.

B1: novel protein: Thrombin-inhibitory protein isolated from assassin bugs (Rhodnius prolixus); contains 103 amino acids of SEQ ID NO: 3, N-terminus SEQ ID NO: 1 (protein)
chain: EGGEPCACPHALHRVCGSDGETYSNPCTLNCAKFNGKPELVKVHDGPCEPDEDEDVCQECDGDEYKPVCGSDDITYDNNCRLECASISSSPGVELKHEGPCRT
Regarding B1, in the series on Thrombin [2], the “binding to thrombin affinity column” value is on record as “binds specifically to a thrombin affinity column”. Moreover, the “inhibition of the biological activity of thrombin” value with Thrombin [3] is “inhibits the biological activity of thrombin”. The isoelectric point in series [1] is on record as 3.7-4.7 pH; in series [1] (listed as novel inhibitor), 4.2±0.5 pH.

The values above are taken from US5523287A, “Thrombin-inhibitory protein from assassin bugs” (BASF Aktiengesellschaft, priority 1991, dated 1996).
